# Reference: patent US20220177587A1, “METHODS AND USES OF VARIANT CD80 FUSION PROTEINS AND RELATED CONSTRUCTS” (Alpine Immune Sciences, Inc., priority 2018, published 2022)
# Residue numbers refer to the chain shown, from its start. Numbers in names are those of the source.
# B1: E35D/M47L/Y53F/V68M/A71G/K93R/E95V (protein, UniProt P33681 35-288, looked up, variant E35D M47L Y53F V68M A71G K93R E95V)
# T-lymphocyte activation …: VIHVTKEVKEVATLSCGHNVSVEELAQTRIYWQKDKKMVLTMMSGDLNIWPEFKNRTIFDITNNLSIMILGLRPSDEGTYECVVLKYEKDAFRRVHLAEVTLSVKADFPTPSISDFEIPTSNIRRIICSTSGGFPEPHLSWLENGEELNAINTTVSQDPETELYAVSSKLDFNMTTNHSFMCLIKYGHLRVNQTFNWNTTKQEHFPDNLLPSWAITLISVNGIFVICCLTYCFAPRCRERRRNERLRRESVRPV
# B2: H18Y/E35D/V68M/T79M/L85M (protein, UniProt P33681 35-288, looked up, variant H18Y E35D V68M T79M L85M)
# T-lymphocyte activation …: B1 T-lymphocyte activation … with H18Y, L47M, F53Y, G71A, T79M, L85M, R93K, V95E
# B3: T13R/Q33R/E35D/M38I/M47L/V68M/L85M (protein, UniProt P33681 35-288, looked up, variant T13R Q33R E35D M38I M47L V68M L85M)
# T-lymphocyte activation …: B1 T-lymphocyte activation … with T13R, Q33R, M38I, F53Y, G71A, L85M, R93K, V95E
# B4: Q33R/E35D/M38I/M47L/V68M (protein, UniProt P33681 35-288, looked up, variant Q33R E35D M38I M47L V68M)
# T-lymphocyte activation …: B1 T-lymphocyte activation … with Q33R, M38I, F53Y, G71A, R93K, V95E
# B5: T13R/Q33R/E35D/M38I/M47L/V68M/E95V/L97Q (protein, UniProt P33681 35-288, looked up, variant T13R Q33R E35D M38I M47L V68M E95V L97Q)
# T-lymphocyte activation …: B1 T-lymphocyte activation … with T13R, Q33R, M38I, F53Y, G71A, R93K, L97Q
# B6: H18Y/E35D/M47L/Y53F/V68M/A71G (protein, UniProt P33681 35-288, looked up, variant H18Y E35D M47L Y53F V68M A71G)
# T-lymphocyte activation …: B1 T-lymphocyte activation … with H18Y, R93K, V95E
# B7: H18Y/E35D/M38I/M47L/V68M/L85M (protein, UniProt P33681 35-288, looked up, variant H18Y E35D M38I M47L V68M L85M)
# T-lymphocyte activation …: B1 T-lymphocyte activation … with H18Y, M38I, F53Y, G71A, L85M, R93K, V95E
# B8: T13R/Q33R/E35D/M38I/M47L/V68M (protein, UniProt P33681 35-288, looked up, variant T13R Q33R E35D M38I M47L V68M)
# T-lymphocyte activation …: B1 T-lymphocyte activation … with T13R, Q33R, M38I, F53Y, G71A, R93K, V95E
# B9: H18Y/V22D/E35D/M47V/N48K/V68M (protein, UniProt P33681 35-288, looked up, variant H18Y V22D E35D M47V N48K V68M)
# T-lymphocyte activation …: B1 T-lymphocyte activation … with H18Y, V22D, L47V, N48K, F53Y, G71A, R93K, V95E
# B10: T13R/Q33L/E35D/M47V/T62S/V68M/L85M (protein, UniProt P33681 35-288, looked up, variant T13R Q33L E35D M47V T62S V68M L85M)
# T-lymphocyte activation …: B1 T-lymphocyte activation … with T13R, Q33L, L47V, F53Y, T62S, G71A, L85M, R93K, V95E
# B11: T13R/Q33L/E35D/M47L/V68M/L85M (protein, UniProt P33681 35-288, looked up, variant T13R Q33L E35D M47L V68M L85M)
# T-lymphocyte activation …: B1 T-lymphocyte activation … with T13R, Q33L, F53Y, G71A, L85M, R93K, V95E
# B12: T13R/Q33R/E35D/M47L/V68M (protein)
# chain: VIHVTKEVKEVARLSCGHNVSVEELAQTRIYWRKDKKMVLTMMSGDLNIWPEYKNRTIFDITNNLSIMILALRPSDEGTYECVVLKYEKDAFKREHLAEVTLSVKADFPTPSISDFETPTSNIRRIICSTSGGFPEPHLSWLENGEELNAINTTVSQDPETELYAVSSKLDFNMTTNHSFMCLIKYGHLRVNQTFNWNTTKQEHFPDN
# modifications: CD80 v381 ECD
# Target: T1, CD28 (Homo sapiens, UniProt P10747)
# Test: Flow binding to Jurkat/IL2 reporter cells (CD28)
# Set-up: host or cells: Jurkat cells expressing an IL-2-luciferase reporter
# Conditions: Table E11; 33.3 nM; listed as WT CD80 ECD-Fc = 1.0
# Method in brief: (§1)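 Flow cytometry on transfected CHO cells or CD28+ Jurkat/IL2 reporter cells, blocked 20 min in PBS/1% BSA/0.1% azide. Fusion protein 45 min on ice; PE anti-human Fc 1:150, 30 min on ice; fixed in 2% formaldehyde. Read-out PE MFI, EC50 calculated.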
row,Molecule,CD28 Fold change to WT CD80
1,B1,12.2
2,B2,33.2
3,B3,0.5
4,B4,0.5
5,B5,35.4
6,B6,0.5
7,B7,0.5
8,B8,0.4
9,B9,8.2
10,B10,0.5
11,B11,0.5
12,B12,0.4

# Same assay, conditions: Table E11; Jurkats (CD28); 33.3 nM
row,Molecule,CD28 MFI at 33.3 nM
1,B1,383
2,B2,1041
3,B3,14.2
4,B4,15
5,B5,1111
6,B6,15.7
7,B7,16.7
8,B8,13.8
9,B9,257
10,B10,16
11,B11,15.7
12,B12,14.1

# Same assay, conditions: Table E16; 33.3 nM; listed as CD80 WT IgV-Fc = 1.0
row,Molecule,CD28 Fold change to WT CD80
1,B6,11.6

# Same assay, conditions: Table E16; consensus variants; Jurkats (CD28); 33.3 nM
row,Molecule,CD28 MFI at 33.3 nM
1,B6,478

# Target: huCTLA4 (Homo sapiens, UniProt P16410)
# Sequence (P16410 36-223): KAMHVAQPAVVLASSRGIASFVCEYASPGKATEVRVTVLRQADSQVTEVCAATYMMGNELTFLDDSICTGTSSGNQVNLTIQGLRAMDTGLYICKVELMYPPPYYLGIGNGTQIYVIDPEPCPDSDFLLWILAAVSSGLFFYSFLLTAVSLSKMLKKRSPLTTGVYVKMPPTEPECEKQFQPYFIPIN
# Test: Flow binding to CHO cells stably expressing CTLA4
# Set-up: huCTLA4 and huPD-L1, full-length mammalian surface expression constructs were generated; expressed in transfected cells; host or cells: CHO cells, lentiviral transduction, sorted to >98% purity
# Conditions: Table E11; 33.3 nM; listed as WT CD80 ECD-Fc = 1.0
# Method in brief: as §1
row,Molecule,CTLA4 Fold change to WT CD80
1,B1,9.1
2,B2,9.3
3,B3,12.6
4,B4,0.1
5,B5,11.8
6,B6,0.1
7,B7,0.1
8,B8,0.1
9,B9,9.0
10,B10,0.1
11,B11,0.1
12,B12,11.8

# Same assay, conditions: Table E11; CHO cells stably expressing CTLA4; 33.3 nM
row,Molecule,CTLA4 MFI at 33.3 nM
1,B1,16013
2,B2,16287
3,B3,22011
4,B4,107
5,B5,20652
6,B6,146
7,B7,139
8,B8,193
9,B9,15798
10,B10,105
11,B11,141
12,B12,20738

# Same assay, conditions: Table E16; 33.3 nM; listed as CD80 WT IgV-Fc = 1.0
row,Molecule,CTLA4 Fold change to WT CD80
1,B6,18.7

# Same assay, conditions: Table E16; consensus variants; CHO cells stably expressing CTLA4; 33.3 nM
row,Molecule,CTLA4 MFI at 33.3 nM
1,B6,19528

# Target: huPD-L1 (Homo sapiens, UniProt Q9NZQ7)
# Sequence (Q9NZQ7 19-290): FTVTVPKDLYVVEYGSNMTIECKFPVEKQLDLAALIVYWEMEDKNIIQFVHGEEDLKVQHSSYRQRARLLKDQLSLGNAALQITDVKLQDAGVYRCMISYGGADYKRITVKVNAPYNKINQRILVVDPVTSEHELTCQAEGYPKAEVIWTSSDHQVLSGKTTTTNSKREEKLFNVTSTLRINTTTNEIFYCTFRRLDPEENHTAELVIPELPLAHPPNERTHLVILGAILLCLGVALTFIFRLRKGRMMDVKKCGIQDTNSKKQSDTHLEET
# Test: Flow binding to CHO cells stably expressing PD-L1
# Set-up: huCTLA4 and huPD-L1, full-length mammalian surface expression constructs were generated; expressed in transfected cells; host or cells: CHO cells, lentiviral transduction, sorted to >98% purity
# Conditions: Table E11; 33.3 nM; listed as WT CD80 ECD-Fc = 1.0
# Method in brief: as §1
row,Molecule,PD-L1 Fold change to WT CD80
1,B1,485.9
2,B2,289.5
3,B3,21.5
4,B4,320.4
5,B5,372.0
6,B6,99.1
7,B7,69.7
8,B8,87.0
9,B9,249.8
10,B10,77.0
11,B11,62.7
12,B12,285.0

# Same assay, conditions: Table E11; CHO cells stably expressing PD-L1; 33.3 nM
row,Molecule,PD-L1 MFI at 33.3 nM
1,B1,25024
2,B2,14907
3,B3,1106
4,B4,16502
5,B5,19157
6,B6,5105
7,B7,3589
8,B8,4482
9,B9,12867
10,B10,3968
11,B11,3228
12,B12,14680

# Same assay, conditions: Table E11; MFI at 33.3 nM
row,Molecule,Ratio of PDL1:CD28
1,B1,65.3
2,B2,14.3
3,B3,77.9
4,B4,1107.5
5,B5,17.2
6,B6,325.2
7,B7,214.9
8,B8,324.8
9,B9,50.1
10,B10,248.0
11,B11,205.6
12,B12,1041.1

# Same assay, conditions: Table E16; 33.3 nM; listed as CD80 WT IgV-Fc = 1.0
row,Molecule,PD-L1 Fold change to WT CD80
1,B6,135.1

# Same assay, conditions: Table E16; MFI at 33.3 nM
row,Molecule,Ratio of PDL1:CD28
1,B6,20.0

# Same assay, conditions: Table E16; consensus variants; CHO cells stably expressing PD-L1; 33.3 nM
row,Molecule,PD-L1 MFI at 33.3 nM
1,B6,9576

# Target: T1, CD28
# Test: Jurkat/IL2 + CHO/OKT3 +/- PD-L1 reporter assay: PD-L1-dependent CD28 costimulation
# Type: cell-based
# Set-up: host or cells: Jurkat cells expressing an IL-2-luciferase reporter
# Conditions: Table E13; Jurkat/IL2 + CHO/OKT3/PD-L1; 5.0 nM
# Method in brief: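 Jurkat reporter cells (100,000/well) preincubated 15 min at room temperature with test protein, then cocultured 5 h at 37 °C with CHO aAPCs bearing anti-CD3 scFv (OKT3) with or without PD-L1. Luciferase luminescence (RLU) read after lysis-substrate addition.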
Molecule,Fold Increase over WT CD80-IgV-Fe,"Relative Luciferase Units (RLU), CD80 Cone 5.0 nM [RLU]"
B1,3.9,1546
B2,2.9,1161
B3,0.4,153
B4,0.4,147
B5,2.5,993
B6,0.3,120
B7,0.5,198
B8,0.4,152
B9,2.7,1072
B10,0.3,136
B11,0.4,153
B12,1.0,399

# Same assay, conditions: Table E17; Jurkat/IL2 + CHO/OKT3/PD-L1; 5.0 nM
row,Molecule,Fold Increase over WT CD80-IgV-Fe
1,B6,5.7

# Same assay, conditions: Table E17; consensus variants; Jurkat/IL2 + CHO/OKT3/PD-L1; 5.0 nM
row,Molecule,"Relative Luciferase Units (RLU), CD80 Cone 5.0 nM [RLU]"
1,B6,2277
